Here are results for four molecules from patent US20110177071A1 (PERSEID THERAPEUTICS, published 2011).

In assay [1] the target is T1, human CD80-murine Ig fusion protein (human).
T1 construct: Bought (Ancell #510-820); also called hCD80-mIg; human CD80-murine IgG
T1 chain: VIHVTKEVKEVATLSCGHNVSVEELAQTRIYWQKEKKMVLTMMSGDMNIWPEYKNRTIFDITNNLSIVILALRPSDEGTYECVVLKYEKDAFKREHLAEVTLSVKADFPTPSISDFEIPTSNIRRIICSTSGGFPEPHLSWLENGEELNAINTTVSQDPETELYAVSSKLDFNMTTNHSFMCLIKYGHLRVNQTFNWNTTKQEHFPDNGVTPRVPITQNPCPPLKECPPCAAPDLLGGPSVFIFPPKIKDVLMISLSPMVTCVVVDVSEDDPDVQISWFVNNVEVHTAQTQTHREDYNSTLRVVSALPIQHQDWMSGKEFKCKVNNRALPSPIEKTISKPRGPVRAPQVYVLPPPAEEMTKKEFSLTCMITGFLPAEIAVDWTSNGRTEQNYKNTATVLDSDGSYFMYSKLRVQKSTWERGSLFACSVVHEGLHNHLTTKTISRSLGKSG
Briefly: SPR Biacore, hCD80-mIg captured. As for the experimental part:
(§1) All Biacore™ analyses were performed on a Biacore™ 2000 system (GE Healthcare) at room temperature (RT, 25° C.). HBS-EP buffer (10 mM HEPES (pH 7.4), 150 mM NaCl, 3 mM EDTA, 0.005% surfactant P20) was used as the flow buffer for all experiments.
(§2) Rabbit anti-mouse IgG antibody (GE Healthcare, #BR-1005-14) was immobilized on CM5 sensor chips (GE Healthcare, #BR-1000-14) according to the manufacturer's protocol. Antibody was diluted to 30 μg/ml in immobilization buffer (10 mM sodium acetate, pH 5.0 (BR-1003-51)). At a flow rate of 5 μl/minute, sensor chip CM5 was activated with a 35 μl injection of a mixture of 1-Ethyl-3-[3-dimethylaminopropyl]carbodiimide hydrochloride (EDC) and N-hydroxysuccinimide (NHS) (made by mixing equal volumes of 11.5 mg/ml EDC and 75 mg/ml NHS) (GE Healthcare, #BR-1000-50), followed by a 35 μl injection of undiluted antibody. Un-reacted sites were quenched with 35 μl of 1M ethanolamine-HCL, pH 8.5 (GE Healthcare, #BR-1000-50). […] CTLA-4 ligands human CD80-murine Ig (hCD80-mIg) (Ancell, #510-820) or human CD86-murine Ig (hCD86-mIg) (Ancell, #509-820) were bound to antibody-coated sensor chips by injection of 10 μl or 16 μl, respectively, ligand solution (2 μg/ml protein in HBS-EP buffer [10 mM HEPES pH 7.4, 150 mM NaCl, 3 mM EDTA, 0.005% (v/v) surfactant P-20, GE Healthcare, #BR-1001-88]) at a flow rate of 10 μl/min.
In general terms: SPR reads the build-up and loss of mass on a sensor chip optically.

Assay [2] concerns the target T2, human CD86-murine Ig fusion protein (human).
T2 construct: Bought (Ancell #509-820); also called hCD86-mIg
T2 chain: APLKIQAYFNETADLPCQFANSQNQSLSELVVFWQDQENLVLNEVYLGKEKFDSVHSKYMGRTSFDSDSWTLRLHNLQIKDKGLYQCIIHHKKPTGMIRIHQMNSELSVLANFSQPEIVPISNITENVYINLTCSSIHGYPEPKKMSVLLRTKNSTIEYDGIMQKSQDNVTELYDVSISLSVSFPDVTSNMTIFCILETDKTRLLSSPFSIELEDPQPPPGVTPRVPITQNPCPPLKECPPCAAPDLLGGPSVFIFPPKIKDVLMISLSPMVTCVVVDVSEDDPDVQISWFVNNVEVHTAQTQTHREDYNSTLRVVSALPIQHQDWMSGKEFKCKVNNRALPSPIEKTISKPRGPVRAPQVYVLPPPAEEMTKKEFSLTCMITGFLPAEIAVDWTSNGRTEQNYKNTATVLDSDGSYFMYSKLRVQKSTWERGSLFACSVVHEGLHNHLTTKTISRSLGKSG
Kind of assay: SPR Biacore, hCD86-mIg captured. The method, then: as §1, §2

Bounds are passed on as bounds.

In general, Kd refers to the equilibrium constant for the complex coming apart. Higher therefore signals weaker binding.

B1: D27-IgG2 (Fc fusion)
chain: MHVAQPAVVLASSRGIASFVCEYESPGKANEVRVTVLREAGSQVTEVCAMTYMVEDELTFLDDPSCTGTFSGNQVNLTIQGLRAADTGLYICKVELMYPPPYYLGLGNGTQIYVIDPEPCPDSDERKCCVECPPCPAPPVAGPSVFLFPPKPKDTLMISRTPEVTCVVVDVSHEDPEVQFNWYVDGVEVHNAKTKPREEQFNSTFRVVSVLTVVHQDWLNGKEYKCKVSNKGLPAPIEKTISKTKGQPREPQVYTLPPSREEMTKNQVSLTCLVKGFYPSDIAVEWESNGQPENNYKTTPPMLDSDGSFFLYSKLTVDKSRWQQGNVFSCSVMHEALHNHYTQKSLSLSPG
Regarding B1, the dissociation constant Kd in assay [1] lay in the range of 0.439 to 1.75 nM. In assay [2], the “Binding Avidity (Relative to Orencia)” value was more than 40 fold and the Kd was less than 0.131 nM.

B2: D29-IgG2 (Fc fusion)
chain: MHVAQPAVVLASSRGIASFVCEYEAPHKADEIRVTVLRKADSQVTEVCAMTYMMEDELTFLDDPSCTGTFSGNQVNLTIQGLRAMDTGLYICKVELMYPPPYYLGLGNGTQIYVIDPEPCPDSDERKCCVECPPCPAPPVAGPSVFLFPPKPKDTLMISRTPEVTCVVVDVSHEDPEVQFNWYVDGVEVHNAKTKPREEQFNSTFRVVSVLTVVHQDWLNGKEYKCKVSNKGLPAPIEKTISKTKGQPREPQVYTLPPSREEMTKNQVSLTCLVKGFYPSDIAVEWESNGQPENNYKTTPPMLDSDGSFFLYSKLTVDKSRWQQGNVFSCSVMHEALHNHYTQKSLSLSPG
For the molecule B2, in assay [1], the dissociation constant (Kd) lay in the range of 0.439 to 1.75 nM. In assay [2], the “Binding Avidity (Relative to Orencia)” value is more than 40 fold and the Kd was less than 0.131 nM.

B3: D28-IgG2 (Fc fusion)
chain: MHVAQPAVVLASSRGIASFVCEYEAPHKANEVRVTVLRQAGSQVTEVCAMTYMMEDELTFLDDPSCTGTFSGNQVNLTIQGLRAADTGLYICKVELMYPPPYYLGLGNGTQIYVIDPEPCPDSDERKCCVECPPCPAPPVAGPSVFLFPPKPKDTLMISRTPEVTCVVVDVSHEDPEVQFNWYVDGVEVHNAKTKPREEQFNSTFRVVSVLTVVHQDWLNGKEYKCKVSNKGLPAPIEKTISKTKGQPREPQVYTLPPSREEMTKNQVSLTCLVKGFYPSDIAVEWESNGQPENNYKTTPPMLDSDGSFFLYSKLTVDKSRWQQGNVFSCSVMHEALHNHYTQKSLSLSPG
Consider B3, for which, in assay [1], the Kd is 0.439 to 1.75 nM. In assay [2], the “Binding Avidity (Relative to Orencia)” value is more than 40 fold and the Kd is less than 0.131 nM.

B4: D31-IgG2 (Fc fusion)
chain: MHVAQPAVVLASSRGIASFVCEYEAPHNADEIRVTVLRQAGSQVTEVCAMTYMVEDELTFLDKSICTGTFSGNQVNLTIQGLRAMDTGLYICKVELMYPPPYYLGIGNGTQIYVIDPEPCPDSDERKCCVECPPCPAPPVAGPSVFLFPPKPKDTLMISRTPEVTCVVVDVSHEDPEVQFNWYVDGVEVHNAKTKPREEQFNSTFRVVSVLTVVHQDWLNGKEYKCKVSNKGLPAPIEKTISKTKGQPREPQVYTLPPSREEMTKNQVSLTCLVKGFYPSDIAVEWESNGQPENNYKTTPPMLDSDGSFFLYSKLTVDKSRWQQGNVFSCSVMHEALHNHYTQKSLSLSPG
Regarding B4, the dissociation constant Kd in assay [1] lay within 0.439 to 1.75 nM; in assay [2] it was 0.131 to 0.262 nM.
